Measured values taken from US20260242478A1 (published 2026).
Where no end group is shown, it is not given here.

Tests used:
[1] = molecular target: T1, Anti-PSMA Fab (SEQ ID NOs: 19, 20); assay: phage binding ELISA; Fab-coated wells pre-incubated with PSMA antigen (competitor: PSMA), then clonal phage, anti-M13 HRP detection
T1 construct: Biotinylated and captured on neutravidin coated plates in the phage ELISA; also called 006 PSMA Fab
Method: (§1) Clonal phage were harvested as crude supernatants and screened via standard ELISAs. […] Prior to the addition of clonal phage. wells were incubated with blocking buffer and PSMA antigen or blocking buffer alone. Without washing or aspirating, clonal phage supernatants were then added to the wells and incubated for a short time. Wells were then washed followed by detection of bound phage using a horse radish conjugated anti-M13 antibody.

[2] = molecular target: T1, Anti-PSMA Fab (SEQ ID NOs: 19, 20); assay: phage binding ELISA; biotinylated anti-PSMA Fab captured on neutravidin plate, clonal phage supernatant, anti-M13 HRP detection
Method: as §1

[3] = molecular target: T2, Anti-CD28 scFv (VH - linker 1 - VL) (biotinylated (site not stated)); assay: phage ELISA; biotinylated anti-CD28 scFv on neutravidin plate, wells pre-incubated with soluble CD28 as competitor, anti-M13-HRP detection
T2 construct: Biotinylated and captured on neutravidin-coated plates in the phage panning ELISA
T2 sequence (scFv, as listed by the source): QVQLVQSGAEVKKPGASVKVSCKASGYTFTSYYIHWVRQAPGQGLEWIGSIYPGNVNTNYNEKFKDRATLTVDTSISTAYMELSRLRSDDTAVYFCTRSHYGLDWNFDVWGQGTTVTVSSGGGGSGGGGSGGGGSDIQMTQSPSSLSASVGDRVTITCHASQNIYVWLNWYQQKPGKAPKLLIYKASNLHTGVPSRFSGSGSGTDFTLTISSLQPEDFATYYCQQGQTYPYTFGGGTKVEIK

[4] = molecular target: T2, Anti-CD28 scFv (VH - linker 1 - VL); assay: phage ELISA; biotinylated anti-CD28 scFv on neutravidin plate, clonal phage supernatant, anti-M13-HRP detection;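 note: before phage addition, wells were pretreated with soluble CD28 protein in blocking buffer, or with blocking buffer only as the comparison, then phage were added without washing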
Method: (§2) Clonal phage were harvested as crude supernatants and screened via standard enzyme linked immunosorbent assays (ELISAs). […] Prior to the addition of clonal phage, wells were incubated with blocking buffer and CD28 soluble protein or blocking buffer alone. Without washing or aspirating, clonal phage supernatants were then added to the wells and incubated for a short time. Wells were then washed followed by detection of bound phage using a horse radish peroxidase conjugated anti-M13 antibody.

[5] = molecular target: anti-CD28 scFv (VH - linker 1 - VL) (biotinylated (site not stated)); assay: same phage ELISA, wells pre-incubated with soluble CD28 (competitor)
anti-CD28 scFv (VH - linker 1 - VL) (biotinylated (site not stated)), sequence (scFv, as listed by the source): as above

[6] = molecular target: T3, Anti-CD28 scFv (VH - linker 1 - VL) (biotinylated (site not given)); assay: phage binding ELISA; biotinylated anti-CD28 scFv on neutravidin plate, bound phage detected with anti-M13-HRP
T3 sequence (scFv, as listed by the source): as above

[7] = molecular target: T3, Anti-CD28 scFv (VH - linker 1 - VL); assay: phage binding ELISA on anti-CD28 scFv plate; wells pre-incubated with soluble CD28 as competitor;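 note: clonal phage supernatants tested, bound phage read out with an HRP-linked anti-M13 antibody, reference wells received blocking buffer lacking CD28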
Method: as §2

anti-CD28 Fab = assay: competition ELISA, peptide titrated 0-100 uM against 1 nM anti-CD28 Fab, plate-bound CD28 as competitor
anti-CD28 Fab, sequence (VH, as listed by the source, chain 1 of 2): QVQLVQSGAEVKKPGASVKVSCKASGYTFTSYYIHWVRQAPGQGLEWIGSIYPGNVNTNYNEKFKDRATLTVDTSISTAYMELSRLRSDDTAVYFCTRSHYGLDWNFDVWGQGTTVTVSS
anti-CD28 Fab, sequence (VL, as listed by the source, chain 2 of 2): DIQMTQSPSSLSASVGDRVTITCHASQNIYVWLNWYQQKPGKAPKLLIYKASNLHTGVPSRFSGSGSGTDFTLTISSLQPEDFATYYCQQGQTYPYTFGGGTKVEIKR

NCWWHDFRAGHVVC (tested as crude phage supernatant) [Phage-1723 (clonal phage displaying the peptide of SEQ ID NO: 2007)] was tested, and the “Anti-PSMA Fab signal in the presence of PSMA” value [1] was 0.0972 and the “Anti-PSMA Fab (SEQ ID NOs: 19, 20) signal” value [2] was 2.05.

B1: Phage-423 clonal phage peptide INLCPTPMWNRCWL (peptide)
peptide: INLCPTPMWNRCWL
notes: tested as crude clonal phage supernatant
In the case of B1, the “CD28 scFv signal in presence of CD28” value [3] is reported as 0.101 and the “CD28 scFv signal” value [4] is reported as 0.103.

With MNWCPKDIWYLCFN (peptide, not shown: large carriers, Clonal phage supernatant) [Phage-22] the “CD28 scFv signal in presence of CD28” value [5] was 0.168.

B2: Phage-279 (peptide)
peptide: MDWCPRYLWAECFN
modifications: cysteine pairing not given here; also: displayed on phage as fusion to pIII, fusion limits and linker not given here
notes: Clonal phage of the Peptide-9 library, tested as crude phage supernatant; not shown: pIII of the bacteriophage
With B2 the “CD28 scFv signal” value [6] was 2.74 and the “CD28 scFv signal in presence of CD28” value [7] was 1.14.

B3: Phage-436 clonal phage peptide MDWCPRDRWADCFN (peptide)
peptide: MDWCPRDRWADCFN
notes: as for B1
With B3 the “CD28 scFv signal in presence of CD28” value [3] was 0.08 and the “CD28 scFv signal” value [4] was 1.35.

B4: Phage-437 clonal phage peptide MDWCPVDRWADCFN (peptide)
peptide: MDWCPVDRWADCFN
notes: as for B1
B4 was tested, and the “CD28 scFv signal in presence of CD28” value [3] was 0.315 and the “CD28 scFv signal” value [4] was 1.16.

B5: Phage-440 clonal phage peptide MDWCPRDRWVDCFN (peptide)
peptide: MDWCPRDRWVDCFN
notes: as for B1
With B5 the “CD28 scFv signal in presence of CD28” value [3] was 0.132 and the “CD28 scFv signal” value [4] was 0.911.

B6: Phage-424 clonal phage peptide ITQCPSTMWNRCSV (peptide)
peptide: ITQCPSTMWNRCSV
notes: as for B1
B6 was tested, and the “CD28 scFv signal in presence of CD28” value [3] was 0.108 and the “CD28 scFv signal” value [4] was 0.098.

B7: Phage-425 clonal phage peptide MDLCPTAMWNRCFY (peptide)
peptide: MDLCPTAMWNRCFY
notes: as for B1
With B7 the “CD28 scFv signal in presence of CD28” value [3] was 0.084 and the “CD28 scFv signal” value [4] was 0.097.

B8: Phage-431 clonal phage peptide MAWCPADQWHECFN (peptide)
peptide: MAWCPADQWHECFN
notes: as for B1
For B8, the “CD28 scFv signal in presence of CD28” value [3] was 0.456 and the “CD28 scFv signal” value [4] was 1.84.

B9: Phage-418 clonal phage peptide MYWCPKYMWSECFA (peptide)
peptide: MYWCPKYMWSECFA
notes: as for B1
For B9, the “CD28 scFv signal in presence of CD28” value [3] was 0.099 and the “CD28 scFv signal” value [4] was 0.741.

B10: Phage-36 (peptide, not shown: large carriers)
peptide: MDWCPRYLWHVCFA
modifications: cysteine pairing not given here; also: fused to phage pIII, linker not given here
notes: Clonal phage supernatant
B10 was tested, and the “CD28 scFv signal in presence of CD28” value [5] was 0.226.

B11: Phage-432 clonal phage peptide IDWCPIIQGLPCFA (peptide)
peptide: IDWCPIIQGLPCFA
notes: as for B1
B11 was tested, and the “CD28 scFv signal in presence of CD28” value [3] was 0.065 and the “CD28 scFv signal” value [4] was 0.368.

B12: Phage-441 clonal phage peptide MDWCPRDRWDDCFF (peptide)
peptide: MDWCPRDRWDDCFF
notes: as for B1
B12 was tested, and the “CD28 scFv signal in presence of CD28” value [3] was 0.183 and the “CD28 scFv signal” value [4] was 0.899.

B13: Phage-426 clonal phage peptide MFLCPSAMWNRCFY (peptide)
peptide: MFLCPSAMWNRCFY
notes: as for B1
With B13 the “CD28 scFv signal in presence of CD28” value [3] was 0.114 and the “CD28 scFv signal” value [4] was 0.094.

B14: Phage-427 clonal phage peptide VILCPTTMWNRCFH (peptide)
peptide: VILCPTTMWNRCFH
notes: as for B1
For B14, the “CD28 scFv signal in presence of CD28” value [3] was 0.084 and the “CD28 scFv signal” value [4] was 0.072.

B15: Phage-434 clonal phage peptide IVWCPTTQWNRCAT (peptide)
peptide: IVWCPTTQWNRCAT
notes: as for B1
For B15, the “CD28 scFv signal in presence of CD28” value [3] was 0.083 and the “CD28 scFv signal” value [4] was 0.067.

B16: Phage-435 clonal phage peptide MDWCPRDRWVDCYA (peptide)
peptide: MDWCPRDRWVDCYA
notes: as for B1
For B16, the “CD28 scFv signal in presence of CD28” value [3] was 0.403 and the “CD28 scFv signal” value [4] was 1.48.

B17: Phage-428 clonal phage peptide MNWCPSTMWNRCLT (peptide)
peptide: MNWCPSTMWNRCLT
notes: as for B1
With B17 the “CD28 scFv signal in presence of CD28” value [3] was 0.07 and the “CD28 scFv signal” value [4] was 0.065.

Work on ACAAGASYAWPYCL [Peptide-99] yielded an IC50 (anti-CD28 Fab) of 21 µM.

In the case of SCAAGASYAAPYCL [Peptide-103], the IC50 (anti-CD28 Fab) is reported as greater than 100 µM.

For SCAAGAAYAWPYCL [Peptide-101], the IC50 (anti-CD28 Fab) was 7.42 µM.

Binder SCAAGASYAWAYCL [Peptide-104] has an IC50 (anti-CD28 Fab) greater than 100 µM.

SCAAAASYAWPYCL [Peptide-100] showed an IC50 (anti-CD28 Fab) greater than 100 µM.

In the case of SCAAGASYAWPYCA [Peptide-106], the IC50 (anti-CD28 Fab) is reported as 76.4 µM.

Binder SCAAGASAAWPYCL [Peptide-102] has an IC50 (anti-CD28 Fab) greater than 100 µM.

For SCAAGASYAWPACL [Peptide-105], the IC50 (anti-CD28 Fab) was 13 µM.

B18: Phage-29 (peptide, not shown: large carriers)
peptide: MDWCPRDLWVHCFA
modifications: cysteine pairing not given here; also: fused to phage pIII, linker not given here
notes: Clonal phage supernatant
In the case of B18, the “CD28 scFv signal in presence of CD28” value [5] is reported as 0.179.

ACAGHAWQYINKCL [Peptide-107] showed an IC50 (anti-CD28 Fab) greater than 100 µM.

For YCAGHAAQYINKCL [Peptide-110], the IC50 (anti-CD28 Fab) was 3.16 µM.

YCAGHAWQYIAKCL [Peptide-114] gave an IC50 (anti-CD28 Fab) of 5.49 µM.

In the case of YCAGHAWQYANKCL [Peptide-113], the IC50 (anti-CD28 Fab) is reported as 102 µM.

YCAGAAWQYINKCL [Peptide-109] gave an IC50 (anti-CD28 Fab) greater than 100 µM.

Work on YCAGHAWQAINKCL [Peptide-112] yielded an IC50 (anti-CD28 Fab) greater than 100 µM.

With YCAGHAWQYINKCA [Peptide-116] the IC50 (anti-CD28 Fab) was 98.6 µM.

YCAGHAWAYINKCL [Peptide-111] showed an IC50 (anti-CD28 Fab) of 12.3 µM.

Binder YCAAHAWQYINKCL [Peptide-108] has an IC50 (anti-CD28 Fab) greater than 100 µM.

In the case of YCAGHAWQYINACL [Peptide-115], the IC50 (anti-CD28 Fab) is reported as greater than 100 µM.

B19: Phage-422 clonal phage peptide MYWCPINMWDYCYA (peptide)
peptide: MYWCPINMWDYCYA
notes: as for B1
For B19, the “CD28 scFv signal in presence of CD28” value [3] was 0.088 and the “CD28 scFv signal” value [4] was 0.109.

B20: Phage-276 (peptide)
peptide: IDWCPKIHWDLCYF
modifications: cysteine pairing not given here; also: displayed on phage as fusion to pIII, fusion limits and linker not given here
notes: as for B2
For B20, the “CD28 scFv signal” value [6] was 0.295 and the “CD28 scFv signal in presence of CD28” value [7] was 0.082.

B21: Phage-419 clonal phage peptide VDWCPAHMWNECYN (peptide)
peptide: VDWCPAHMWNECYN
notes: as for B1
With B21 the “CD28 scFv signal” value [4] was 0.664.

B22: Phage-277 (peptide)
peptide: MDWCPRSHWSECFS
modifications: cysteine pairing not given here; also: displayed on phage as fusion to pIII, fusion limits and linker not given here
notes: as for B2
In the case of B22, the “CD28 scFv signal” value [6] is reported as 0.253 and the “CD28 scFv signal in presence of CD28” value [7] is reported as 0.087.

B23: Phage-416 clonal phage peptide MDWCPSNMWNECFF (peptide)
peptide: MDWCPSNMWNECFF
notes: as for B1
With B23 the “CD28 scFv signal” value [4] was 0.983.

B24: Phage-417 clonal phage peptide IYWCPTAMWNRCSA (peptide)
peptide: IYWCPTAMWNRCSA
notes: as for B1
For B24, the “CD28 scFv signal in presence of CD28” value [3] was 0.073 and the “CD28 scFv signal” value [4] was 0.817.

B25: Phage-35 (peptide, not shown: large carriers)
peptide: MDWCPRSLWHECFA
modifications: cysteine pairing not given here; also: fused to phage pIII, linker not given here
notes: Clonal phage supernatant
With B25 the “CD28 scFv signal in presence of CD28” value [5] was 0.255.

B26: Phage-438 clonal phage peptide MDWCPMSRWAFCFD (peptide)
peptide: MDWCPMSRWAFCFD
notes: as for B1
In the case of B26, the “CD28 scFv signal in presence of CD28” value [3] is reported as 0.115 and the “CD28 scFv signal” value [4] is reported as 1.

B27: Phage-433 clonal phage peptide MAWCPWAQFDECLA (peptide)
peptide: MAWCPWAQFDECLA
notes: as for B1
For B27, the “CD28 scFv signal in presence of CD28” value [3] was 0.078 and the “CD28 scFv signal” value [4] was 0.071.

With MDWCPLHMWHECFS (peptide, not shown: large carriers, Clonal phage supernatant) [Phage-23] the “CD28 scFv signal in presence of CD28” value [5] was 0.151.

B28: Phage-439 clonal phage peptide MDWCPRDRWDVCFA (peptide)
peptide: MDWCPRDRWDVCFA
notes: as for B1
With B28 the “CD28 scFv signal in presence of CD28” value [3] was 0.096 and the “CD28 scFv signal” value [4] was 0.924.

B29: Phage-32 (peptide, not shown: large carriers)
peptide: MDWCPRDMWSVCFS
modifications: cysteine pairing not given here; also: fused to phage pIII, linker not given here
notes: Clonal phage supernatant; the listing entry decides
In the case of B29, the “CD28 scFv signal in presence of CD28” value [5] is reported as 0.207.
